From US20160312212A1, “COW ANTIBODY SCAFFOLD POLYPEPTIDE METHOD AND COMPOSITION” (Roche Sequencing Solutions, Inc., priority 2015, published 2016)

Molecular target: Biotinylated Human Thrombin (human) (UniProt P00734)
Test: mRNA display selection on biotinylated human thrombin, round 2; NGS read frequency

In the case of “mRNA-displayed cow antibody scaffold polypeptide with cassette RTKIK*NGL* (designed binder)”, the counts is reported as 86 counts and the percentage (%) is reported as 0.0052%.
